Measured values from patent publication US20080200654A1 (KIRIN PHARMA, published 2008).

T1: A33 antigen (full-length human A33) (human, UniProt Q99795 22-319)
T1 construct: Class I cell membrane protein of the Ig superfamily; also called GPA33; human A33 antigen
T1 sequence: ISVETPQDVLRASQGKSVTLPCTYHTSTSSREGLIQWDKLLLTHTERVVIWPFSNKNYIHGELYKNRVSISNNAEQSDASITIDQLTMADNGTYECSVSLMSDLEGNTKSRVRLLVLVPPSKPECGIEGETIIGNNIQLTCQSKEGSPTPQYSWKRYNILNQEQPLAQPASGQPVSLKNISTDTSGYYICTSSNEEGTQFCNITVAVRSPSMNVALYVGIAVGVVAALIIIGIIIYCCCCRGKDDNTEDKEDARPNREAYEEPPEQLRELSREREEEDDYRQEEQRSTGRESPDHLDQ


Tests used:
[1] = molecular target: T1, A33 antigen (full-length human A33); experiment: FCM competition on COLO205 cells as in Example 10; competitor mouse anti-A33 antibody
Protocol: (§1) Whether or not each type of purified monoclonal antibody obtained in Example 8 recognizes an epitope similar to that of the mouse anti-A33 antibody was examined by a competition test using FCM. The COLO205 cell line was suspended at a concentration of 2×10⁶/ml in a PBS Staining Buffer (SB) containing 0.1% NaN₃ and 2% FCS. The cell suspension (50 μl/well) was dispensed in a 96-well round bottom plate (produced by Becton, Dickinson and Company). The purified mouse anti-A33 antibody prepared in Example 1 was not added or added at a concentration of 100 μg/ml to the wells containing each type of purified monoclonal antibody (1 μg/ml and 50 μl), followed by 30 minutes of incubation on ice. A mouse negative control (containing no purified anti-A33 antibody added thereto) was prepared as follows. A human IgG1 antibody (produced by Sigma) was adjusted at a concentration of 1 μg/ml with SB and then 50 μl of the solution was added, followed by 30 minutes of incubation on ice. The resultant was washed twice with SB and then 50 μl of FITC fluorescence-labeled goat anti-human IgG F(ab′)₂ antibody (produced by IBL) was added, followed by 30 minutes of incubation on ice. The resultant was washed once with SB and then the resultant was suspended in 300 μl of a FACS buffer. The mean fluorescence intensity of each cell line was measured by FACS (FACScan produced by Becton, Dickinson and Company). The inhibition (%) between each type of purified monoclonal antibody and the mouse A33 antibody was calculated by the following formula: […]

[2] = molecular target: T1, A33 antigen (full-length human A33); experiment: FCM on COLO205 cells; grade = ng/ml to reach half MFI 45 (+++ 10<=x<100, ++ 100<=x<1000, + 1000<=x<10000)
[3] = molecular target: T1, A33 antigen (full-length human A33); experiment: FCM on LS174T cells; grade = ng/ml to reach half MFI 100 (+++ 10<=x<100, ++ 100<=x<1000, + 1000<=x<10000)
[4] = molecular target: T1, A33 antigen (full-length human A33); experiment: FCM on NCI-H508 cells; grade = ng/ml to reach half MFI 175 (+++ 10<=x<100, ++ 100<=x<1000, + 1000<=x<10000)
[5] = molecular target: T1, A33 antigen (full-length human A33); experiment: FCM competition on COLO205 cells; antibody 1 µg/ml, competitor mouse anti-A33 antibody 100 µg/ml
Protocol: as §1

[6] = molecular target: T1, A33 antigen (full-length human A33); experiment: FCM on LoVo cells; grade = ng/ml to reach half MFI 25 (+++ 10<=x<100, ++ 100<=x<1000, + 1000<=x<10000)
Excerpt: (§2) The reactivity of each type of purified monoclonal antibody obtained in Example 8 to A33-antigen-expressing human colorectal cancer cell line COLO205 cells, LoVo cells (ATCC No. CCL-229), LS174T cells (ATCC No. CL-188), and NCI-H508 cells (ATCC No. CCL-253) was examined by FCM. Human colorectal cancer cell line HT-29 cells (ATCC No. HTB-38) expressing no A33 antigen were also examined as negative control cells. Each cell line was suspended at a concentration of 2×10⁶/ml in a PBS Staining Buffer (SB) containing 0.1% NaN₃ and 2% FCS. The cell suspension (50 μl/well) was dispensed in a 96-well round bottom plate (produced by Becton, Dickinson and Company). 50 μl of each type of purified monoclonal antibody (adjusted using SB at a concentration of 2000, 400, 80, or 16 ng/ml) was added, and then incubation was performed on ice for 30 minutes. A negative control was prepared depending on each subclass. Specifically, a human IgG1 antibody (produced by Sigma) was adjusted using SB at a concentration of 2000, 400, 80, or 16 ng/ml. 50 μl of the solution was added, followed by 30 minutes of incubation on ice. The resultant was washed twice with SB and then 50 μl of an FITC fluorescence-labeled goat anti-human IgG F(ab′)₂ antibody (produced by Southern Biotech), followed by 30 minutes of incubation on ice. The resultant was washed once with SB and then the resultant was suspended in 300 μl of a FACS buffer. The mean fluorescence intensity of each cell line was measured by FACS (FACScan produced by Becton, Dickinson and Company).
(§3) For COLO205 cells, the half value of the mean fluorescence intensity was determined to be 90. For LoVo cells, the half value of the mean fluorescence intensity was determined to be 25. […] When an antibody concentration required to reach such value was 10<=x<100 ng/ml, the reactivity was represented by +++, when the same was 100<=x<1000 ng/ml, the reactivity was represented by ++, and when the same was 1000<=x<10000 ng/ml, the reactivity was represented by +. When no binding was observed, the reactivity was represented by −.

[7] = molecular target: T1, A33 antigen (full-length human A33); experiment: FCM on COLO205 cells; grade = ng/ml to reach half MFI 90 (+++ 10<=x<100, ++ 100<=x<1000, + 1000<=x<10000)
Excerpt: as §2, §3

[8] = molecular target: T1, A33 antigen (full-length human A33); experiment: FCM on LS174T cells; grade = ng/ml to reach half MFI 125 (+++ 10<=x<100, ++ 100<=x<1000, + 1000<=x<10000)
Excerpt: as §2, §3

[9] = molecular target: T1, A33 antigen (full-length human A33); experiment: FCM on NCI-H508 cells; grade = ng/ml to reach half MFI 125 (+++ 10<=x<100, ++ 100<=x<1000, + 1000<=x<10000)
Excerpt: as §2, §3

Binder	Inhibition (%) [1] [%]	antibody concentration required to reach half value of the mean fluorescence intensity [2] [ng/mL]	antibody concentration required to reach half value of the mean fluorescence intensity [3] [ng/mL]	antibody concentration required to reach half value of the mean fluorescence intensity [4] [ng/mL]	Inhibition (%) [5] [%]	antibody concentration required to reach half value of mean fluorescence intensity [6] [ng/mL]	antibody concentration required to reach half value of mean fluorescence intensity [7] [ng/mL]	antibody concentration required to reach half value of mean fluorescence intensity [8] [ng/mL]	antibody concentration required to reach half value of mean fluorescence intensity [9] [ng/mL]
recM10 (antibody, V domains shown, also called recM10 antibody; M10 recombinant antibody) VH: QLQVQESGPGLVKPSETLSLICTVSGGSIRTSGYYWGWFRQPPGKGLEWIGTSHNSGSTYYNPSLKSRVTISVDTSKNQFSLKLNSVTAADTAVYYCARQGYDFKVNIDVWGQGTTVTVSS VL: EIVLTQSPATLSLSPGERATLSCRASQSVSSYLAWYQQKPGQAPRLLIYDASNRATGIPARFSGSGSGTDFTLTISSLEPEDFAVYYCQQRSNWPLTFGGGTKVEIK	0.2	10 to 100	10 to 100	10 to 100	–	–	–	–	–
recM165 (antibody, V domains shown, also called recM165 antibody; M165 recombinant antibody) VH: QVQLVESGGGVVQPGRSLRLSCAASGFTFSYYGMHWVRQAPGKGLEWVAVIWYDGSNKYYADSVKGRFTISRDNSKKTLYLQMNSLRAEDTAVYYCARDGHSSGWGDFQHWGQGTLVTVSS VL: EIVLTQSPATLSLSPGERATLSCRASQSVSSSLAWYQQKPGQAPRLLIYDASNRATGIPARFSGSGSGTDFTLTISSLEPEDFAIYYCQQRSNWPPTFGQGTKVEIK	93.4	100 to 1000	100 to 1000	100 to 1000	–	–	–	–	–
recQ54 (antibody, V domains shown, also called recQ54 antibody; Q54 recombinant antibody) VH: EVQLLESGGGLVQPGGSLRLSCAASGFTFSSYAMSWVRQAPGKGLEWVSDISGSGGYTYYADSVKGRFTISRDNSKNTLYLQMNSLRAEDTAVYYCAKTGDGSGSYSPDSWGQGTLVTVSS VL: DIQMTQSPSSLSASVGDRVTITCRASQGISRWLAWYQQKPEKAPKSLIYAASSLQSGVPSRFSGSGSGTDFTLTISSLQPEDFATYYCQQYNSYPYTFGQGTKLEIK	44.6	10 to 100	10 to 100	10 to 100	–	–	–	–	–
chimeric anti-A33 antibody (antibody, V domains shown, Mouse variable regions with human IgG1 heavy chain and light chain constant regions (N5KG1-Val Lark vector); also called cA33; chimeric anti-A33 recombinant antibody) VH: EVKLVESGGGLVKPGGSLKLSCAASGFAFSTYDMSWVRQTPEKRLEWVATISSGGSYTYYLDSVKGRFTISRDSARNTLYLQMSSLRSEDTALYYCAPTTVVPFAYWGQGTLVTVSS VL: DIVMTQSQKFMSTSVGDRVSITCKASQNVRTVVAWYQQKPGQSPKTLIYLASNRHTGVPDRFTGSGSGTDFTLTISNVQSEDLADYFCLQHWSYPLTFGSGTKLEVK	94.6	10 to 100	10 to 100	10 to 100	94.2	10 to 100	10 to 100	100 to 1000	100 to 1000
rec263 (antibody, V domains shown, also called rec263 antibody; rec263A1) VH: EVQLLESGGGLVQPGGSLRLSCAASGFTFSSYAMSWIRQAPGKGLEWVSAISASGGSTYYADSVKGRFTISRDNSKNTLYLQMNSLRAEDTAVYYCAKDRIVGATNYYYGMDVWGQGTTVTVSS VL: DIQMTQSPPSVSASVGDRVTITCRASQGISSWLAWYQHKPGKAPKLLIYGASSLQSGVPSRFSGSGSGTDFTLTISSLQPEDFATYYCQQANSFPITFGQGTRLEIK	15.3	100 to 1000	100 to 1000	100 to 1000	–	–	–	–	–
recN26 (antibody, V domains shown, also called recN26 antibody; N26 recombinant antibody) VH: QVQLVESGGGVVQPGRSLRLSCAASGFTFSHYGMHWVRQAPGKGLEWVALIWYDGSNKYYADSVKGRFTISRDNSKNTLYLQMNSLRAEDTAVYYCARDPLAAGTSYFDYWGQGTLVTVSS VL: EIVLTQSPDFQSVTPKEKVTITCRASQSIGSSLHWYQQKPDQSPKLLIKYASQSFSGVPSRFSGSGSGTDFTLTINSLEAEDAAAYYCHQSSSLPFTFGPGTKVDIK	95.3	100 to 1000	10 to 100	10 to 100	–	–	–	–	–
